Data as given in patent US20030180895A1.
Like-named read-outs stand apart in the source and are kept apart here.

Columns and labels:
Experiment in all cases: cell-based or functional assay
[1] = target: Bacillus subtilis xylanase A mutant Y166F (Bacillus subtilis) (UniProt P18429)
[2] = target: Bacillus subtilis wild type xylanase A (Bacillus subtilis) (UniProt P18429)
[3] = target: Bacillus subtilis xylanase A mutant R122A (Bacillus subtilis) (UniProt P18429)
[4] = target: Bacillus subtilis xylanase A mutant T124K (Bacillus subtilis) (UniProt P18429)
[5] = target: Bacillus subtilis xylanase A mutant G120N (Bacillus subtilis) (UniProt P18429)
[6] = target: Bacillus subtilis xylanase A mutant T123D (Bacillus subtilis) (UniProt P18429)
[7] = target: Bacillus subtilis wild type xylanase A (Bacillus subtilis) (UniProt P18429); remark: listed apart in the source
[8] = target: Bacillus subtilis xylanase A mutant D11S (Bacillus subtilis) (UniProt P18429)
[9] = target: Bacillus subtilis xylanase A mutant D11F/G34D (Bacillus subtilis) (UniProt P18429)
[10] = target: Bacillus subtilis xylanase A mutant S31K (Bacillus subtilis) (UniProt P18429)
[11] = target: Bacillus subtilis xylanase A mutant D119K (Bacillus subtilis) (UniProt P18429)
[12] = target: Bacillus subtilis xylanase A mutant D121A (Bacillus subtilis) (UniProt P18429)
[13] = target: Bacillus subtilis xylanase A mutant N17K (Bacillus subtilis) (UniProt P18429)
[14] = target: Thermomyces lanuginosus wildtype xylanase A (Thermomyces lanuginosus) (UniProt O43097)
UniProt O43097, sequence (O43097 32-225 limits assumed): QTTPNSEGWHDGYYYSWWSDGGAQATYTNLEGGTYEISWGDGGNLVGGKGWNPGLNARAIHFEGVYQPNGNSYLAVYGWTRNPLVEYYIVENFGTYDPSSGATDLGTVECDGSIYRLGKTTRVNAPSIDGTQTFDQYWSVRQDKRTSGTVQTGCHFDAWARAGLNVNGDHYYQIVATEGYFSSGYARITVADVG

[15] = target: Bacillus subtilis xylanase A mutant D11N (Bacillus subtilis) (UniProt P18429)
[16] = target: Bacillus subtilis xylanase A mutant D121F (Bacillus subtilis) (UniProt P18429)
[17] = target: Bacillus subtilis xylanase A mutant G120Y (Bacillus subtilis) (UniProt P18429)
[18] = target: Bacillus subtilis xylanase A mutant D119Y (Bacillus subtilis) (UniProt P18429)
[19] = target: Bacillus subtilis xylanase A mutant G12F (Bacillus subtilis) (UniProt P18429)
[20] = target: Bacillus subtilis xylanase A mutant I15K (Bacillus subtilis) (UniProt P18429)
[21] = target: Bacillus subtilis xylanase A mutant Q175L (Bacillus subtilis) (UniProt P18429)
[22] = target: Bacillus subtilis xylanase A mutant D121N (Bacillus subtilis) (UniProt P18429)
[23] = target: Bacillus subtilis xylanase A mutant D121K (Bacillus subtilis) (UniProt P18429)
[24] = target: Bacillus subtilis xylanase A mutant S31Y (Bacillus subtilis) (UniProt P18429)
[25] = target: Bacillus subtilis xylanase A mutant T123K (Bacillus subtilis) (UniProt P18429)
[26] = target: Bacillus subtilis xylanase A mutant N29Y (Bacillus subtilis) (UniProt P18429)
[27] = target: Bacillus subtilis xylanase A mutant Q175S (Bacillus subtilis) (UniProt P18429)

## wheat endogenous xylanase inhibitor
[1]
  Relative inhibition, % at 1, 26 XIU/ml: 74%
  Relative inhibition, % at 3, 15 XIU/ml: 39%
  Relative inhibition, % at 6, 3 XIU/ml: 22%
  Relative inhibition, % at 12, 6 XIU/ml: 20%
[2]
  Relative inhibition, % at 1, 26 XIU/ml: 75%
  Relative inhibition, % at 3, 15 XIU/ml: 40%
  Relative inhibition, % at 6, 3 XIU/ml: 24%
  Relative inhibition, % at 12, 6 XIU/ml: 20%
[3]
  Relative inhibition, % at 1, 26 XIU/ml: 78%
  Relative inhibition, % at 3, 15 XIU/ml: 46%
  Relative inhibition, % at 6, 3 XIU/ml: 33%
  Relative inhibition, % at 12, 6 XIU/ml: 26%
[4]
  Relative inhibition, % at 1, 26 XIU/ml: 110%
  Relative inhibition, % at 3, 15 XIU/ml: 92%
  Relative inhibition, % at 6, 3 XIU/ml: 73%
  Relative inhibition, % at 12, 6 XIU/ml: 57%
[5]
  Relative inhibition, % at 1, 26 XIU/ml: 84%
  Relative inhibition, % at 3, 15 XIU/ml: 49%
  Relative inhibition, % at 6, 3 XIU/ml: 29%
  Relative inhibition, % at 12, 6 XIU/ml: 23%
[6]
  Relative inhibition, % at 1, 26 XIU/ml: 83%
  Relative inhibition, % at 3, 15 XIU/ml: 36%
  Relative inhibition, % at 6, 3 XIU/ml: 20%
  Relative inhibition, % at 12, 6 XIU/ml: 17%
[7]
  Relative inhibition, % at 1, 26 XIU/ml: 77%
  Relative inhibition, % at 3, 15 XIU/ml: 48%
  Relative inhibition, % at 6, 3 XIU/ml: 29%
  Relative inhibition, % at 12, 6 XIU/ml: 23%
[8]
  Relative inhibition, % at 1, 26 XIU/ml: 98%
  Relative inhibition, % at 3, 15 XIU/ml: 81%
  Relative inhibition, % at 6, 3 XIU/ml: 60%
  Relative inhibition, % at 12, 6 XIU/ml: 38%
[9]
  Relative inhibition, % at 1, 26 XIU/ml: 104%
  Relative inhibition, % at 3, 15 XIU/ml: 106%
  Relative inhibition, % at 6, 3 XIU/ml: 103%
  Relative inhibition, % at 12, 6 XIU/ml: 104%
[10]
  Relative inhibition, % at 1, 26 XIU/ml: 77%
  Relative inhibition, % at 3, 15 XIU/ml: 42%
  Relative inhibition, % at 6, 3 XIU/ml: 23%
  Relative inhibition, % at 12, 6 XIU/ml: 23%
[11]
  Relative inhibition, % at 1, 26 XIU/ml: 94%
  Relative inhibition, % at 3, 15 XIU/ml: 67%
  Relative inhibition, % at 6, 3 XIU/ml: 40%
  Relative inhibition, % at 12, 6 XIU/ml: 26%
[12]
  Relative inhibition, % at 1, 26 XIU/ml: 81%
  Relative inhibition, % at 3, 15 XIU/ml: 50%
  Relative inhibition, % at 6, 3 XIU/ml: 27%
  Relative inhibition, % at 12, 6 XIU/ml: 21%
[13]
  Relative inhibition, % at 1, 26 XIU/ml: 88%
  Relative inhibition, % at 3, 15 XIU/ml: 48%
  Relative inhibition, % at 6, 3 XIU/ml: 31%
  Relative inhibition, % at 12, 6 XIU/ml: 26%
[14]
  Relative inhibition, % at 1, 26 XIU/ml: 45%
  Relative inhibition, % at 3, 15 XIU/ml: 24%
  Relative inhibition, % at 6, 3 XIU/ml: 17%
  Relative inhibition, % at 12, 6 XIU/ml: 14%
[15]
  Relative inhibition, % at 1, 26 XIU/ml: 93%
  Relative inhibition, % at 3, 15 XIU/ml: 72%
  Relative inhibition, % at 6, 3 XIU/ml: 53%
  Relative inhibition, % at 12, 6 XIU/ml: 32%
[16]
  Relative inhibition, % at 1, 26 XIU/ml: 101%
  Relative inhibition, % at 3, 15 XIU/ml: 89%
  Relative inhibition, % at 6, 3 XIU/ml: 72%
  Relative inhibition, % at 12, 6 XIU/ml: 60%
[17]
  Relative inhibition, % at 1, 26 XIU/ml: 81%
  Relative inhibition, % at 3, 15 XIU/ml: 40%
  Relative inhibition, % at 6, 3 XIU/ml: 18%
  Relative inhibition, % at 12, 6 XIU/ml: 16%
[18]
  Relative inhibition, % at 1, 26 XIU/ml: 87%
  Relative inhibition, % at 3, 15 XIU/ml: 50%
  Relative inhibition, % at 6, 3 XIU/ml: 28%
  Relative inhibition, % at 12, 6 XIU/ml: 22%
[19]
  Relative inhibition, % at 1, 26 XIU/ml: 110%
  Relative inhibition, % at 3, 15 XIU/ml: 106%
  Relative inhibition, % at 6, 3 XIU/ml: 100%
  Relative inhibition, % at 12, 6 XIU/ml: 92%
[20]
  Relative inhibition, % at 1, 26 XIU/ml: 84%
  Relative inhibition, % at 3, 15 XIU/ml: 47%
  Relative inhibition, % at 6, 3 XIU/ml: 28%
  Relative inhibition, % at 12, 6 XIU/ml: 23%
[21]
  Relative inhibition, % at 1, 26 XIU/ml: 78%
  Relative inhibition, % at 3, 15 XIU/ml: 42%
  Relative inhibition, % at 6, 3 XIU/ml: 25%
  Relative inhibition, % at 12, 6 XIU/ml: 23%
[22]
  Relative inhibition, % at 1, 26 XIU/ml: 80%
  Relative inhibition, % at 3, 15 XIU/ml: 36%
  Relative inhibition, % at 6, 3 XIU/ml: 16%
  Relative inhibition, % at 12, 6 XIU/ml: 14%
[23]
  Relative inhibition, % at 1, 26 XIU/ml: 104%
  Relative inhibition, % at 3, 15 XIU/ml: 95%
  Relative inhibition, % at 6, 3 XIU/ml: 85%
  Relative inhibition, % at 12, 6 XIU/ml: 75%
[24]
  Relative inhibition, % at 1, 26 XIU/ml: 83%
  Relative inhibition, % at 3, 15 XIU/ml: 50%
  Relative inhibition, % at 6, 3 XIU/ml: 27%
  Relative inhibition, % at 12, 6 XIU/ml: 22%
[25]
  Relative inhibition, % at 1, 26 XIU/ml: 80%
  Relative inhibition, % at 3, 15 XIU/ml: 46%
  Relative inhibition, % at 6, 3 XIU/ml: 30%
  Relative inhibition, % at 12, 6 XIU/ml: 25%
[26]
  Relative inhibition, % at 1, 26 XIU/ml: 85%
  Relative inhibition, % at 3, 15 XIU/ml: 49%
  Relative inhibition, % at 6, 3 XIU/ml: 30%
  Relative inhibition, % at 12, 6 XIU/ml: 24%
[27]
  Relative inhibition, % at 1, 26 XIU/ml: 88%
  Relative inhibition, % at 3, 15 XIU/ml: 59%
  Relative inhibition, % at 6, 3 XIU/ml: 30%
  Relative inhibition, % at 12, 6 XIU/ml: 19%
